Positions count from the first letter of the chain named.
T1: hNectin-4-His (human Nectin-4 extracellular antigen) (Homo sapiens, UniProt Q96NY8)
T1 construct: made in house
T1 sequence (Q96NY8 with tags, fused parts or gaps): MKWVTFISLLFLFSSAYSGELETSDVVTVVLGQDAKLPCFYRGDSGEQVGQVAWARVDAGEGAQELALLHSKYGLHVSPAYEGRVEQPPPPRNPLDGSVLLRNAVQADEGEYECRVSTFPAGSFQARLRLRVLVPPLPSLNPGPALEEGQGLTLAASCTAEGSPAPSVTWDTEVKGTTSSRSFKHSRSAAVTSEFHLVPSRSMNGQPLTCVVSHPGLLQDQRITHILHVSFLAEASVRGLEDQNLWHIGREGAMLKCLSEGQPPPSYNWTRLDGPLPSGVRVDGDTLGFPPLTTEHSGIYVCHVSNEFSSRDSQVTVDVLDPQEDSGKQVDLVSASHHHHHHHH

B1: 1G8-1G3: VH SEQ ID NO: 98 (antibody, V domains shown)
VH: EVQLVESGGGLVQPGGSLRLSCAASGFNFGTYAMSWVRQAPGKGLEWVSRISGISAGTNYADSVKGRFTISRDNSKNTLYLQMNSLRAEDTAVYYCARQTEDRSYGYDLDYWGQGTLVTVSS
B2: 1G8-1E10: VH SEQ ID NO: 90 (antibody, V domains shown)
VH: B1 VH with F27D, N28S, G30S, I54S, S55G, A56D, T58K, N59D
B3: 1G8-2B3: VH SEQ ID NO: 109 (antibody, V domains shown)
VH: B1 VH with F27Y, G30T, Y32S, S52Y, G53Q, I54D, A56S, G57T, N59D

These molecules were tested against T1, hNectin-4-His (human Nectin-4 extracellular antigen) (assay: SPR (BIAcore) affinity assay). Conditions: Table 13.
Format: binding
Method: In this study, the affinity of the antibodies for the human Nectin-4 extracellular antigen was detected by surface plasmon resonance (SPR) technique (BIAcore: GE Healthcare, T200).
Capture was performed using a Protein A chip (Cat #29127556, GE Healthcare), and 5 µg/mL antibody dilutions (in HBS-EP+(10×): GE Healthcare, Cat #BR-1006-69, with a working concentration of 1×) were directed through the experimental flow channels (Fc2 and Fc4) at a flow rate of 10 μL/min for 10 s; then, the flow rate was adjusted to 30 μL/min, the hNectin-4-His dilutions at different concentrations (0 nM, 1.23 nM, 3.7 nM, 11.1 nM, 33.3 nM, and 100 nM) were sequentially added, and simultaneously directed through the surfaces of the experimental flow channels (Fc2 and Fc4) and reference flow channels (Fc1 and Fc3) with an association time of 120 s and a dissociation time of 180 s, and finally, the chip was regenerated in Glycine 1.5.

Molecule	ka [M⁻¹ s⁻¹]	kd [s⁻¹]
B1	471000	0.00141
B2	665000	0.00087
B3	742000	0.00147
